Assay results reported in patent EP4624492A1 (Shanghai Hongcheng Biopharmaceutical Co., Ltd., dated 2025).
Read-outs that look alike come from different tables or passages of the source.

Assays:
human CCR8 [1] = molecular target: T1, human CCR8 (human, UniProt P51685 1-355); test: flow cytometry, competition with 10 nM AF647-human CCL1 on 293F-hCCR8 cells
T1 construct: whole, on cells; the cell line is named under assay; also called hCCR8

human CCR8 [2] = molecular target: T1, human CCR8; test: cell-based or functional assay
human CCR8 [3] = molecular target: T1, human CCR8; test: cell-based or functional assay; remark: listed apart in the source
human CCR8 [4] = molecular target: T1, human CCR8; test: cell-based or functional assay; remark: listed apart in the source
cynomolgus CCR8 = molecular target: T2, cynomolgus CCR8 (cynomolgus monkey); test: flow cytometry on 293T-cynoCCR8 cells
T2 construct: whole, on cells; the constructs of the cell lines are not tied to it word for word; also called cynoCCR8

human CCR8 [5] = molecular target: T1, human CCR8; test: flow cytometry on CHOK1-hCCR8 cells
human CCR8 [6] = molecular target: T1, human CCR8; test: cell-based or functional assay; remark: listed apart in the source
human CCR8 [7] = molecular target: T1, human CCR8; test: cell-based or functional assay; remark: listed apart in the source
human CCR8 [8] = molecular target: T1, human CCR8; test: cell-based or functional assay; remark: listed apart in the source
human CCR8 [9] = molecular target: T1, human CCR8; test: flow cytometry on 293F-hCCR8 cells
human CCR8 [10] = molecular target: T1, human CCR8; test: flow cytometry on HuT78 cells (endogenous CCR8)

T1 sequence (P51685 whole entry): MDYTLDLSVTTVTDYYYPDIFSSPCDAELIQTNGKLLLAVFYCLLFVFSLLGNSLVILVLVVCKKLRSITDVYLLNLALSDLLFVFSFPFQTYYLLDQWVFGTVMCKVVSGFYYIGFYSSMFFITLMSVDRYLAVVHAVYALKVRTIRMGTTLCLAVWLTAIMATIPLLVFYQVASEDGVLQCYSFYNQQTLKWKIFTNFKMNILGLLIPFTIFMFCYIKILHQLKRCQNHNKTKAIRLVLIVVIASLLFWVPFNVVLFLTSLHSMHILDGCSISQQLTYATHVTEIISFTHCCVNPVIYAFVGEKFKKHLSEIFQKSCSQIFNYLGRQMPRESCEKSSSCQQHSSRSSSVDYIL

IC50 (human CCR8 [1]): 0.0852 µg/mL | EC50 of activation of Jurkat-human FcγRIIIa(158V)-NFAT with 293F-hCCR8 target cells (human CCR8 [2]): 0.0279 µg/mL | IC50 of blockade of CCL1-induced β-arrestin recruitment (human CCR8 [3]): 1.46 µg/mL | EC50 of activation of Jurkat-human FcγRIIIa(158V)-NFAT with HuT78 target cells (human CCR8 [4]): 0.0409 µg/mL | EC50 (cynomolgus CCR8): 0.0227 µg/mL | EC50 (human CCR8 [5]): 0.0376 µg/mL | EC50 of activation of Jurkat-human FcγRIIIa(158V)-NFAT with CHOK1-hCCR8 target cells (human CCR8 [6]): 0.0299 µg/mL | EC50 of ADCC effect (lysis%) by human PBMCs on CHOK1-hCCR8 cells (human CCR8 [7]): 0.00471 µg/mL | EC50 of activation of Jurkat-human FcγRIIIa(158V)-NFAT with 293F-hCCR8 target cells (human CCR8 [8]): 0.0135 µg/mL | EC50 (human CCR8 [9]): 0.103 µg/mL | EC50 (human CCR8 [10]): 0.054 µg/mL
B1: 563E10E12_hzH1L0_hIgG1 (antibody)
heavy: not shown
light: DIVMTQSPLSLPVTPGEPASISCRSSKSLLHSNGITYLFWYLQKPGQSPQLLIYQMSNLASGVPDRFSGSGSGTDFTLKISRVEAEDVGVYYCAQSLELPLTFGGGTKVEIKRTVAAPSVFIFPPSDEQLKSGTASVVCLLNNFYPREAKVQWKVDNALQSGNSQESVTEQDSKDSTYSLSSTLTLSKADYEKHKVYACEVTHQGLSSPVTKSFNRGEC
notes: Humanized, hIgG1/K
